Laboratory results published in patent US20070036793A1, “Methods for use of an lkb1/strad7mo25 complex” (priority 2003, published 2007).

What was measured:
[1] = target: T1, GST-STRADα lacking the last 3 amino acids (Trp-Glu-Phe) (human, UniProt Q7RTN6 1-428); experiment: GST pull-down from co-transfected 293 cells, anti-Myc blot
T1 construct: not shown: glutathione S-transferase (GST) tag, N-terminal, pEBG-2T vector
T1 sequence: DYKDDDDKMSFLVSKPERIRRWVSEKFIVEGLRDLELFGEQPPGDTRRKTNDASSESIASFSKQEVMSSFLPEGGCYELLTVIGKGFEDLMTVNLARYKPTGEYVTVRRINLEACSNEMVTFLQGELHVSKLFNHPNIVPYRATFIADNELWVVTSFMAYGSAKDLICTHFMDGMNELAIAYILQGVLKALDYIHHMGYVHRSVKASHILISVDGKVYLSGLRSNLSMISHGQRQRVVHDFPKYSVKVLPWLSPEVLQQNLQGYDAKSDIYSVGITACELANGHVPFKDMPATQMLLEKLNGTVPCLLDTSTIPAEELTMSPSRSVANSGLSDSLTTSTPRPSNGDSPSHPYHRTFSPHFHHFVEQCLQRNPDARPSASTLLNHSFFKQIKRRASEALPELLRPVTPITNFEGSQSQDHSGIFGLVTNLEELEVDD
Protocol: 5 μg of the total cell lysates prior to affinity purification were also subjected to immunoblotting with anti-Myc antibody to ensure that Myc-MO25α was expressed at similar levels in each condition (lower panel). (B) 0.5 mg of the indicated cell lysates was incubated with 5 μg of an N-terminal biotinylated peptide encompassing either the C-terminal 12 residues STRADα conjugated to streptavidin-Sepharose ([…], termed STRADα-C12) or mutants of this peptide in which the indicated residues were individually mutated to Ala. Following isolation and washing of the beads, the samples were subjected to SDS-polyacrylamide gel electrophoresis and immunoblotted with an anti-MO25α antibody. (C) Binding of bacterially expressed MO25α to the indicated peptides was analysed by surface plasmon resonance BiaCore analysis as described in Materials and Methods. […] WEF-C12 corresponds to […], WEA-C12 corresponds to […], AEF-C12 corresponds to […], WAF-C12 corresponds to […], WEF-C6 corresponds to VDDWEF.
Expression of GST-fusion proteins in 293 cells and affinity purification. 10-cm diameter dishes of 293 cells were transiently transfected with 3 to 10 μg of the pEBG-2T constructs using a modified calcium phosphate method (Alessi et al., 1996). […]

Flag-tagged STRADα = target: T2, Flag-tagged STRADα (human, UniProt Q7RTN6 1-431, limits assumed); experiment: heterotrimeric complex purified through GST-LKB1 from co-transfected 293 cells, colloidal blue gel and blots
T2 construct: pCMV5 vector; also called Flag-STRADα; FLAG-STRADα
T2 sequence: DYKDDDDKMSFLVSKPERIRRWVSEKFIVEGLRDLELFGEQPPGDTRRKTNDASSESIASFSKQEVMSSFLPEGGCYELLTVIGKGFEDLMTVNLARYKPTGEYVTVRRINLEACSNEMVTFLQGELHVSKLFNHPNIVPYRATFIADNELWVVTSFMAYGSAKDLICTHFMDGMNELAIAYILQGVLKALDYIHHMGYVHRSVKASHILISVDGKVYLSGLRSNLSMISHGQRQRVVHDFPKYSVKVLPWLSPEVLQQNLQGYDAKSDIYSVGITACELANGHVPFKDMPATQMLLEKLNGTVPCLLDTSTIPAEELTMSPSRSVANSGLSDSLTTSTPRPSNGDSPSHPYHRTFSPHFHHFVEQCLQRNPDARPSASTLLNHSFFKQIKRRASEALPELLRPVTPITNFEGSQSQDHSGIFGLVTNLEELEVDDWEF
Protocol: (§1) FIG. 4. MO25α is associated with LKB1 through STRAD (A) 293 cells were transfected with plasmids encoding for the expression of the indicated GST fusion proteins together with Myc-MO25α. 36 h post transfection, the GST tagged proteins were affinity purified from the cell lysates using glutathione-Sepharose as described in Materials and Methods. […] 5 μg of total cell lysates prior to affinity purification were also subjected to immunoblotting with anti-Myc antibody to ensure that Myc-MO25α was expressed at similar levels in each co-transfection (lower panel). (B) N-terminal GST tagged LKB1 was expressed in 293 cells in the presence or absence of Flag-STRADα and purified as above. The purified proteins were subjected to SDS-polyacrylamide gel electrophoresis and visualised by Colloidal blue staining (upper panel). The faint protein band indicated, corresponding to an endogenous protein of 40-kDa (marked *), was identified by tryptic peptide mass-spectral fingerprint as endogenously expressed MO25α (with 38% sequence coverage). The purified proteins were also immunoblotted with the indicated antibodies (lower panels). (C) As above except that GST-LKB1 was expressed in 293 cells together with the indicated isoforms of Flag-STRAD and Myc-MO25 and the proteins visualised by colloidal blue staining were also immunoblotted with the indicated antibodies. For all panels, similar results were obtained in at least 3 separate experiments.
(§2) Expression of GST-fusion proteins in 293 cells and affinity purification. 10-cm diameter dishes of 293 cells were transiently transfected with 3 to 10 μg of the pEBG-2T constructs using a modified calcium phosphate method (Alessi et al., 1996). 36 h post-transfection, the cells were lysed and the clarified lysates were incubated for 1 h on a rotating platform with glutathione-Sepharose (25 μl/dish of lysate) previously equilibrated in lysis Buffer.

Flag-tagged STRADβ = target: T3, Flag-tagged STRADβ (human, UniProt Q9C0K7 1-418); experiment: as above
T3 construct: pCMV5 vector; also called Flag-STRADβ; FLAG-STRADβ
T3 sequence: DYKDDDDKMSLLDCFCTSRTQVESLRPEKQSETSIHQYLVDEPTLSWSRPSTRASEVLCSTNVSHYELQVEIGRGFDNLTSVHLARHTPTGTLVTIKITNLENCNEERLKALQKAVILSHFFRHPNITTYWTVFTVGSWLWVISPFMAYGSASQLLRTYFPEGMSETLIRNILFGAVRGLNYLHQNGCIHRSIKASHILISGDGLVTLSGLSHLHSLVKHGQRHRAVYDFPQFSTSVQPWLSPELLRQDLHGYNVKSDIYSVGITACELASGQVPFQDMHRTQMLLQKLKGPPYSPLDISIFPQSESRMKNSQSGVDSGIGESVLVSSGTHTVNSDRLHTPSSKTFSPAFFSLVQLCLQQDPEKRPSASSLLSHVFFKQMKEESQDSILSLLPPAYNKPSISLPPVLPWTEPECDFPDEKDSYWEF
Protocol: as §1, §2

[2] = target: T4, GST-STRADα lacking the C-terminal 88 residues (human, UniProt Q7RTN6 1-343); experiment: GST pull-down from co-transfected 293 cells
T4 construct: not shown: glutathione S-transferase (GST) tag, N-terminal, pEBG-2T vector
T4 sequence: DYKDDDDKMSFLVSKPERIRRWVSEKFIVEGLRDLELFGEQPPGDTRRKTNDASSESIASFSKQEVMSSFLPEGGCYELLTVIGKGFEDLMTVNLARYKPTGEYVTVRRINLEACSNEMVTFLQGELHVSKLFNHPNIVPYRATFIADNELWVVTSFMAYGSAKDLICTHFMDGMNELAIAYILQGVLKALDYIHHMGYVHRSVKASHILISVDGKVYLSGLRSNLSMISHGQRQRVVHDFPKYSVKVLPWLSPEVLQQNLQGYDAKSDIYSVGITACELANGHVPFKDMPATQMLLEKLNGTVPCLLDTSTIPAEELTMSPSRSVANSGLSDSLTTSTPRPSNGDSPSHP
Protocol: FIG. 7. Binding of LKB1 to STRADα creates novel binding site(s) for MO25α. […] Similar results were obtained in 3 separate experiments.
Expression of GST-fusion proteins in 293 cells and affinity purification. 10-cm diameter dishes of 293 cells were transiently transfected with 3 to 10 μg of the pEBG-2T constructs using a modified calcium phosphate method (Alessi et al., 1996). 36 h post-transfection, the cells were lysed and the clarified lysates were incubated for 1 h on a rotating platform with glutathione-Sepharose (25 μl/dish of lysate) previously equilibrated in lysis Buffer. The beads were washed 4 times with lysis Buffer containing 150 mM NaCl and twice with Buffer A. For immunoblotting analysis, the beads were then resuspended in SDS sample Buffer after this step to give a final volume of slurry of 75 μl, and the samples immunoblotted as described above. For protein kinase assays and gel electrophoresis, the beads were washed a further twice with Buffer A containing 0.27 M sucrose and the proteins were eluted from the resin by incubation with the same buffer containing 20 mM of glutathione. The beads were then removed by filtration through a 0.44-μm filter and the eluate divided into aliquots and stored at −80° C.

B1: N-terminal Myc-tagged MO25α (other, human, UniProt Q9Y376 1-341, looked up)
chain: MPFPFGKSHKSPADIVKNLKESMAVLEKQDISDKKAEKATEEVSKNLVAMKEILYGTNEKEPQTEAVAQLAQELYNSGLLSTLVADLQLIDFEGKKDVAQIFNNILRRQIGTRTPTVEYICTQQNILFMLLKGYESPEIALNCGIMLRECIRHEPLAKIILWSEQFYDFFRYVEMSTFDIASDAFATFKDLLTRHKLLSAEFLEQHYDRFFSEYEKLLHSENYVTKRQSLKLLGELLLDRHNFTIMTKYISKPENLKLMMNLLRDKSRNIQFEAFHVFKVFVANPNKTQPILDILLKNQAKLIEFLSKFQNDRTEDEQFNDEKTYLVKQIRDLKRPAQQEA
notes: also called Myc-MO25α; myc-MO25α; not shown: only the DNA primer is printed
B1: no binding [1]; binds (Flag-tagged STRADα); binds (Flag-tagged STRADβ). B1: no binding [2].
